Data from US12104181B2, “Compositions and methods for treating viral infections targeting TRIM7” (THE BOARD OF REGENTS OF THE UNIVERSITY OF TEXAS SYSTEM, priority 2021, dated 2024).
Several values for one entry are separate records, joined by “and”; a condition that tells them apart may be missing. Equal values may be shown once.

B1: RCHY1: human RING type E3 ligase expressed from lentiviral vector; listed twice (protein, UniProt Q96PM5 1-261, looked up)
RING finger and CHY zinc …: MAATAREDGASGQERGQRGCEHYDRGCLLKAPCCDKLYTCRLCHDNNEDHQLDRFKVKEVQCINCEKIQHAQQTCEECSTLFGEYYCDICHLFDKDKKQYHCENCGICRIGPKEDFFHCLKCNLCLAMNLQGRHKCIENVSRQNCPICLEDIHTSRVVAHVLPCGHLLHRTCYEEMLKEGYRCPLCMHSALDMTRYWRQLDDEVAQTPMPSEYQNMTVDILCNDCNGRSTVQFHILGMKCKICESYNTAQAGGRRISLDQQ
B2: RNF145: human RING type E3 ligase expressed from lentiviral vector (protein, UniProt Q96MT1 1-663, looked up)
RING finger protein 145: MAAKEKLEAVLNVALRVPSIMLLDVLYRWDVSSFFQQIQRSSLSNNPLFQYKYLALNMHYVGYILSVVLLTLPRQHLVQLYLYFLTALLLYAGHQISRDYVRSELEFAYEGPMYLEPLSMNRFTTALIGQLVVCTLCSCVMKTKQIWLFSAHMLPLLARLCLVPLETIVIINKFAMIFTGLEVLYFLGSNLLVPYNLAKSAYRELVQVVEVYGLLALGMSLWNQLVVPVLFMVFWLVLFALQIYSYFSTRDQPASRERLLFLFLTSIAECCSTPYSLLGLVFTVSFVALGVLTLCKFYLQGYRAFMNDPAMNRGMTEGVTLLILAVQTGLIELQVVHRAFLLSIILFIVVASILQSMLEIADPIVLALGASRDKSLWKHFRAVSLCLFLLVFPAYMAYMICQFFHMDFWLLIIISSSILTSLQVLGTLFIYVLFMVEEFRKEPVENMDDVIYYVNGTYRLLEFLVALCVVAYGVSETIFGEWTVMGSMIIFIHSYYNVWLRAQLGWKSFLLRRDAVNKIKSLPIATKEQLEKHNDICAICYQDMKSAVITPCSHFFHAGCLKKWLYVQETCPLCHCHLKNSSQLPGLGTEPVLQPHAGAEQNVMFQEGTEPPGQEHTPGTRIQEGSRDNNEYIARRPDNQEGAFDPKEYPHSAKDEAHPVESA
B3: RNF103: human RING type E3 ligase expressed from lentiviral vector (protein, UniProt O00237 1-685, looked up)
E3 ubiquitin-protein ligase …: MWLKLFFLLLYFLVLFVLARFFEAIVWYETGIFATQLVDPVALSFKKLKTILECRGLGYSGLPEKKDVRELVEKSGDLMEGELYSALKEEEASESVSSTNFSGEMHFYELVEDTKDGIWLVQVIANDRSPLVGKIHWEKMVKKVSRFGIRTGTFNCSSDPRYCRRRGWVRSTLIMSVPQTSTSKGKVMLKEYSGRKIEVEHIFKWITAHAASRIKTIYNAEHLKEEWNKSDQYWLKIYLFANLDQPPAFFSALSIKFTGRVEFIFVNVENWDNKSYMTDIGIYNMPSYILRTPEGIYRYGNHTGEFISLQAMDSFLRSLQPEVNDLFVLSLVLVNLMAWMDLFITQGATIKRFVVLISTLGTYNSLLIISWLPVLGFLQLPYLDSFYEYSLKLLRYSNTTTLASWVRADWMFYSSHPALFLSTYLGHGLLIDYFEKKRRRNNNNDEVNANNLEWLSSLWDWYTSYLFHPIASFQNFPVESDWDEDPDLFLERLAFPDLWLHPLIPTDYIKNLPMWRFKCLGVQSEEEMSEGSQDTENDSESENTDTLSSEKEVFEDKQSVLHNSPGTASHCDAEACSCANKYCQTSPCERKGRSYGSYNTNEDMEPDWLTWPADMLHCTECVVCLENFENGCLLMGLPCGHVFHQNCIVMWLAGGRHCCPVCRWPSYKKKQPYAQHQPLSNDVPS
modifications: lentiviral expression
notes: human RING type E3 ligase expressed from lentiviral vector
B4: RSPRY1: human RING type E3 ligase expressed from lentiviral vector (protein, UniProt Q96DX4 17-576, looked up)
RING finger and SPRY …: QGLLLTLEEHIAHFLGTGGAATTMGNSCICRDDSGTDDSVDTQQQQAENSAVPTADTRSQPRDPVRPPRRGRGPHEPRRKKQNVDGLVLDTLAVIRTLVDNDQEPPYSMITLHEMAETDEGWLDVVQSLIRVIPLEDPLGPAVITLLLDECPLPTKDALQKLTEILNLNGEVACQDSSHPAKHRNTSAVLGCLAEKLAGPASIGLLSPGILEYLLQCLKLQSHPTVMLFALIALEKFAQTSENKLTISESSISDRLVTLESWANDPDYLKRQVGFCAQWSLDNLFLKEGRQLTYEKVNLSSIRAMLNSNDVSEYLKISPHGLEARCDASSFESVRCTFCVDAGVWYYEVTVVTSGVMQIGWATRDSKFLNHEGYGIGDDEYSCAYDGCRQLIWYNARSKPHIHPCWKEGDTVGFLLDLNEKQMIFFLNGNQLPPEKQVFSSTVSGFFAAASFMSYQQCEFNFGAKPFKYPPSMKFSTFNDYAFLTAEEKIILPRHRRLALLKQVSIRENCCSLCCDEVADTQLKPCGHSDLCMDCALQLETCPLCRKEIVSRIRQISHIS
B5: MARCH3: human RING type E3 ligase expressed from lentiviral vector (protein, UniProt Q86UD3 1-253, looked up)
E3 ubiquitin-protein ligase …: MTTSRCSHLPEVLPDCTSSAAPVVKTVEDCGSLVNGQPQYVMQVSAKDGQLLSTVVRTLATQSPFNDRPMCRICHEGSSQEDLLSPCECTGTLGTIHRSCLEHWLSSSNTSYCELCHFRFAVERKPRPLVEWLRNPGPQHEKRTLFGDMVCFLFITPLATISGWLCLRGAVDHLHFSSRLEAVGLIALTVALFTIYLFWTLVSFRYHCRLYNEWRRTNQRVILLIPKSVNVPSNQPSLLGLHSVKRNSKETVV
modifications: lentiviral expression
notes: as for B3
B6: RFPL3: human RING type E3 ligase expressed from lentiviral vector (protein, UniProt O75679 1-317, looked up)
Ret finger protein-like 3: MKRLSLVTTNRLSPQGNFLPLCTFPLAVDMAALFQEASSCPVCSDYLEKPMSLECGCTVCLKCINSLQKEPHGEDLLCCCCSMVSQRNKIRPNRQLERLVSHIKELEPKLKKILQMNPRMRKFQVDMTLDADTANNFLLISDDLRSVRSGLITQNRQDLAERFDVSVCILGSPRFTCGRHYWEVDVGTSTEWDLGVCRESVHCKGKIQLTTELGFWTVSLRDGSRLSASTVPLTFLLVDRKLQRVGIFLDMGMQNVSFFDAESGSHVYTFRSVSAEEPLRPFLAPSIPPNGDQGVLSICPLMNSGTTDAPVRPGEAK
modifications: lentiviral expression
notes: as for B3
B7: RNF112: human RING type E3 ligase expressed from lentiviral vector (protein, UniProt Q9ULX5 1-631, looked up)
RING finger protein 112: MPRPALSVTSFCHRLGKRERKQSFMGNSGNSWSHTPFPKLELGLGPQPMAPRELPTCSICLERLRDPISLDCGHDFCIRCFSTHRLPGCEPPCCPECRKICKQKRGLRSLGEKMKLLPQRPLPPALQETCPVRAEPLLLVRINASGGLILRMGAINRCLKHPLARDTPVCLLAVLGEQHSGKSFLLNHLLQGLPGLESGEGGRPRGGEASLQGCRWGANGLARGIWMWSHPFLLGKEGKKVAVFLVDTGDAMSPELSRETRIKLCALTTMLSSYQILSTSQELKDTDLDYLEMFVHVAEVMGKHYGMVPIQHLDLLVRDSSHPNKAGQGHVGNIFQRLSGRYPKVQELLQGKRARCCLLPAPGRRRMNQGHASPGDTDDDFRHLLGAYVSDVLSAAPQHAKSRCQGYWNEGRAVARGDRRLLTGQQLAQEIKNLSGWMGRTGPGFTSPDEMAAQLHDLRKVEAAKREFEEYVRQQDVATKRIFSALRVLPDTMRNLLSTQKDAILARHGVALLCKGRDQTLEALEAELQATAKAFMDSYTMRFCGHLAAVGGAVGAGLMGLAGGVVGAGMAAAALAAEAGMVAAGAAVGATGAAVVGGGVGAGLAATVGCMEKEEDERLLEGDREPLLQEE
modifications: lentiviral expression
notes: as for B3
B8: RFFL: human RING type E3 ligase expressed from lentiviral vector (protein, UniProt Q8WZ73 1-363, looked up)
E3 ubiquitin-protein ligase …: MWATCCNWFCLDGQPEEVPPPQGARMQAYSNPGYSSFPSPTGLEPSCKSCGAHFANTARKQTCLDCKKNFCMTCSSQVGNGPRLCLLCQRFRATAFQREELMKMKVKDLRDYLSLHDISTEMCREKEELVLLVLGQQPVISQEDRTRASTLSPDFPEQQAFLTQPHSSMVPPTSPNLPSSSAQATSVPPAQVQENQQANGHVSQDQEEPVYLESVARVPAEDETQSIDSEDSFVPGRRASLSDLTDLEDIEGLTVRQLKEILARNFVNYKGCCEKWELMERVTRLYKDQKGLQHLVSGAEDQNGGAVPSGLEENLCKICMDSPIDCVLLECGHMVTCTKCGKRMNECPICRQYVIRAVHVFRS
B9: RNF182: human RING type E3 ligase expressed from lentiviral vector (protein, UniProt Q8N6D2 1-247, looked up)
E3 ubiquitin-protein ligase …: MASQPPEDTAESQASDELECKICYNRYNLKQRKPKVLECCHRVCAKCLYKIIDFGDSPQGVIVCPFCRFETCLPDDEVSSLPDDNNILVNLTCGGKGKKCLPENPTELLLTPKRLASLVSPSHTSSNCLVITIMEVQRESSPSLSSTPVVEFYRPASFDSVTTVSHNWTVWNCTSLLFQTSIRVLVWLLGLLYFSSLPLGIYLLVSKKVTLGVVFVSLVPSSLVILMVYGFCQCVCHEFLDCMAPPS
B10: RNF135: human RING type E3 ligase expressed from lentiviral vector (protein, UniProt Q8IUD6 1-432, looked up)
E3 ubiquitin-protein ligase …: MAGLGLGSAVPVWLAEDDLGCIICQGLLDWPATLPCGHSFCRHCLEALWGARDARRWACPTCRQGAAQQPHLRKNTLLQDLADKYRRAAREIQAGSDPAHCPCPGSSSLSSAAARPRRRPELQRVAVEKSITEVAQELTELVEHLVDIVRSLQNQRPLSESGPDNELSILGKAFSSGVDLSMASPKLVTSDTAAGKIRDILHDLEEIQEKLQESVTWKEAPEAQMQGELLEAPSSSSCPLPDQSHPALRRASRFAQWAIHPTFNLKSLSCSLEVSKDSRTVTVSHRPQPYRWSCERFSTSQVLCSQALSSGKHYWEVDTRNCSHWAVGVASWEMSRDQVLGRTMDSCCVEWKGTSQLSAWHMVKETVLGSDRPGVVGIWLNLEEGKLAFYSVDNQEKLLYECTISASSPLYPAFWLYGLHPGNYLIIKQVKV
modifications: lentiviral expression
notes: as for B3
B11: RNF13: human RING type E3 ligase expressed from lentiviral vector (protein, UniProt O43567 35-381, looked up)
E3 ubiquitin-protein ligase …: DILAYNFENASQTFDDLPARFGYRLPAEGLKGFLINSKPENACEPIVPPPVKDNSSGTFIVLIRRLDCNFDIKVLNAQRAGYKAAIVHNVDSDDLISMGSNDIEVLKKIDIPSVFIGESSANSLKDEFTYEKGGHLILVPEFSLPLEYYLIPFLIIVGICLILIVIFMITKFVQDRHRARRNRLRKDQLKKLPVHKFKKGDEYDVCAICLDEYEDGDKLRILPCSHAYHCKCVDPWLTKTKKTCPVCKQKVVPSQGDSDSDTDSSQEENEVTEHTPLLRPLASVSAQSFGALSESRSHQNMTESSDYEEDDNEDTDSSDAENEINEHDVVVQLQPNGERDYNIANTV

Test system: coxsackievirus B3 (CVB3-GFP)
Type: cell-based
Conditions: HeLa cells, replicate R1; for Percent Infected R1: GFP-positive cells within RFP-positive gate

Row | Molecule | Percent Infected R1 | Z score R1
1 | B1 | 97.6% and 91.2% | 0.11 and 0.03
2 | B2 | 94.2% | 0.07
3 | B3 | 96.9% | 0.11
4 | B4 | 91.4% | 0.04
5 | B5 | 91.4% | 0.04
6 | B6 | 78.3% | −0.13
7 | B7 | 86.6% | −0.03
8 | B8 | 88.2% | −0.01
9 | B9 | 97.9% | 0.12
10 | B10 | 86.2% | −0.03
11 | B11 | 97.9% | 0.12
